Measured values taken from patent publication US20260028608A1.
Where two headings read alike, the source gives them in different places.

How the values were obtained:
Test in all cases: cell-based or functional assay
[1] = biological target: Humira (Abbvie), human IgG1
[2] = biological target: human IgG4 from Abcam (ab90286 Lot #GR3180469) (human)
[3] = biological target: Humira (Abbvie), human IgG1; remark: listed apart in the source
[4] = biological target: XGEVA (Amgen), human IgG2
[5] = biological target: human IgG3 from Sigma (15654 Lot #SLBW0899) (human)
[6] = biological target: XGEVA (Amgen), human IgG2; remark: listed apart in the source

Question: Which results are given for “IdeS (Immunoglobulin G-degrading enzyme of S. pyogenes), control polypeptide pCART124”?
Answer: Conc. of enzyme for cleavage of 1st IgG1 heavy chain, IgG to scIgG (SDS-PAGE) [1]: 1.5 ng/mL; Conc. of enzyme for cleavage of 2nd IgG1 heavy chain, scIgG to F(ab')2 (SDS-PAGE) [1]: 120 ng/mL; IgG4 EC50 F(ab')2 (SDS-PAGE, visual estimate) [2]: 0.18 µg/mL; IgG4 EC50 scIgG (SDS-PAGE, visual estimate) [2]: 0.002 µg/mL; Approximate EC50 value, i.e. equal amounts of scIgG and F(ab')2 (SDS-PAGE) [3]: 0.12 µg/mL; Conc. of enzyme for cleavage of 1st IgG1 heavy chain, IgG to scIgG (SDS-PAGE) [3]: 4.5 ng/mL; Conc. of enzyme for cleavage of 2nd IgG1 heavy chain, scIgG to F(ab')2 (SDS-PAGE) [3]: 400 ng/mL; IgG1 EC50 F(ab')2 (SDS-PAGE, visual estimate) [3]: 0.08 µg/mL; IgG1 EC50 scIgG (SDS-PAGE, visual estimate) [3]: 0.001 µg/mL; fold of EC50 F(ab')2 for IgG1, IdeS against N240 [3]: 5 fold; Conc. of enzyme for cleavage of 1st IgG2 heavy chain, IgG to scIgG (SDS-PAGE) [4]: 40 ng/mL; Conc. of enzyme for cleavage of 2nd IgG2 heavy chain, scIgG to F(ab)2 (SDS-PAGE) [4]: 1100 ng/mL; IgG2 EC50 F(ab')2 (SDS-PAGE, visual estimate) [4]: 0.12 µg/mL; IgG2 EC50 scIgG (SDS-PAGE, visual estimate) [4]: 0.003 µg/mL; IgG3 EC50 F(ab')2 (SDS-PAGE, visual estimate) [5]: 0.015 µg/mL; IgG3 EC50 scIgG (SDS-PAGE, visual estimate) [5]: 0.0022 µg/mL; Conc. of enzyme for cleavage of 1st IgG2 heavy chain, IgG to scIgG (SDS-PAGE) [6]: 10 ng/mL; Conc. of enzyme for cleavage of 2nd IgG2 heavy chain, scIgG to F(ab)2 (SDS-PAGE) [6]: 400 ng/mL
